Assay results from patent publication US20090110678A1 (Eli Lilly, published 2009).

How the values were obtained:
[1] = molecular target: T1, PDGFRα expressed on cells (PAE Rα, PC3-ML, SKLMS-1, U118) (human, UniProt P16234 24-1089); assay: cell-based or functional assay
[2] = molecular target: T2, Human PDGFRα extracellular domain (ECD) (human, UniProt P16234 24-528); assay: SPR, BIAcore 3000, PDGFRα ECD immobilized, antibody injected
T2 construct: extracellular domain; Bought reagent; also called PDGFRa ECD; PDGFRα ECD
Procedure: (§1) The kinetics of antibody binding to PDGFRα was measured using a BIAcore 3000 instrument (BIAcore, Inc., Piscataway, N.J.). PDGFRα ECD was immobilized onto a sensor chip and antibody was injected at various concentrations. Sensograms were obtained at each concentration and evaluated using the BIA Evaluation 2.0 program to determine the rate constants. The affinity constant, Kd, was calculated from the ratio of rate constants Koff/Kₒₙ.

[3] = molecular target: T2, Human PDGFRα extracellular domain (ECD); assay: SPR, BIAcore 3000, PDGFRα ECD immobilized, antibody injected; Koff/Kon
Procedure: as §1

[4] = molecular target: T2, Human PDGFRα extracellular domain (ECD); assay: direct binding ELISA on immobilized PDGFRα ECD (ED50, 50% maximum binding)
[5] = molecular target: T2, Human PDGFRα extracellular domain (ECD); assay: solid-phase blocking assay: inhibition of [125I]PDGF-AA binding to immobilized PDGFRα ECD
[6] = molecular target: T2, Human PDGFRα extracellular domain (ECD); assay: solid-phase blocking of [125I]PDGF-BB binding to immobilized PDGFRα ECD; [125I]PDGF-BB as ligand, solid phase
[7] = molecular target: T1, PDGFRα expressed on cells (PAE Rα, …); assay: cell-based PDGF blocking assay (Heldin et al. 1988); cells and PDGF isoform not named; cell-based PDGF blocking; cells and isoform not named
[8] = molecular target: T2, Human PDGFRα extracellular domain (ECD); assay: solid-phase blocking of iodinated PDGF binding to immobilized PDGFRα ECD; the table does not name the ligand, [125I]PDGF-AA by the legend of FIG. 13B; solid-phase PDGF blocking; ligand not named in Table 6

T1 sequence (P16234 24-1089): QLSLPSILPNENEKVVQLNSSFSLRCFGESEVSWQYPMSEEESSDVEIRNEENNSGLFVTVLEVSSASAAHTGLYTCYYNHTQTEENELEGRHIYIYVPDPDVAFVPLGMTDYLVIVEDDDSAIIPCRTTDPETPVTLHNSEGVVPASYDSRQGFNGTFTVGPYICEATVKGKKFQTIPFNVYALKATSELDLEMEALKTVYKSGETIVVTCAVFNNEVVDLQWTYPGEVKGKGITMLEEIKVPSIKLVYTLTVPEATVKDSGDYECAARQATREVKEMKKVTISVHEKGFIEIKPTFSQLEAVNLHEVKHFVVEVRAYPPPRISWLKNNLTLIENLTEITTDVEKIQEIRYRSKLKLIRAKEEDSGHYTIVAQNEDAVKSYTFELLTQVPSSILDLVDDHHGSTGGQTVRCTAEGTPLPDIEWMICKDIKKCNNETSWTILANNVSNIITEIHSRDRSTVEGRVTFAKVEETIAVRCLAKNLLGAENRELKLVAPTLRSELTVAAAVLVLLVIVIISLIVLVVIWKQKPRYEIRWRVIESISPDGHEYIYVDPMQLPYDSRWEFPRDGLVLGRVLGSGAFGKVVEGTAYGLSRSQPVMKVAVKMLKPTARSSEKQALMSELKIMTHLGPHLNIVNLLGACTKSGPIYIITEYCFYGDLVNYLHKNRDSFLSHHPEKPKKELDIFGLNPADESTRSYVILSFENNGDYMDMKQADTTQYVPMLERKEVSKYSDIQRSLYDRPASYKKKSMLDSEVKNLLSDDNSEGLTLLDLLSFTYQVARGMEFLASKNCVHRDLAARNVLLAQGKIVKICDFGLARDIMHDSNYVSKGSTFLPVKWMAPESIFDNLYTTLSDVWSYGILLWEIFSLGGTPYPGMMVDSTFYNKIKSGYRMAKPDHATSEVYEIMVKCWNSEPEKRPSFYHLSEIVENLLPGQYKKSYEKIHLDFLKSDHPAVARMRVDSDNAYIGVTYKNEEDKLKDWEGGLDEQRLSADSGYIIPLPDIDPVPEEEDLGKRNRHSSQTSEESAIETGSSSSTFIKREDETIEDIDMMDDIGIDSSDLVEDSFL
T2 sequence (P16234 24-528): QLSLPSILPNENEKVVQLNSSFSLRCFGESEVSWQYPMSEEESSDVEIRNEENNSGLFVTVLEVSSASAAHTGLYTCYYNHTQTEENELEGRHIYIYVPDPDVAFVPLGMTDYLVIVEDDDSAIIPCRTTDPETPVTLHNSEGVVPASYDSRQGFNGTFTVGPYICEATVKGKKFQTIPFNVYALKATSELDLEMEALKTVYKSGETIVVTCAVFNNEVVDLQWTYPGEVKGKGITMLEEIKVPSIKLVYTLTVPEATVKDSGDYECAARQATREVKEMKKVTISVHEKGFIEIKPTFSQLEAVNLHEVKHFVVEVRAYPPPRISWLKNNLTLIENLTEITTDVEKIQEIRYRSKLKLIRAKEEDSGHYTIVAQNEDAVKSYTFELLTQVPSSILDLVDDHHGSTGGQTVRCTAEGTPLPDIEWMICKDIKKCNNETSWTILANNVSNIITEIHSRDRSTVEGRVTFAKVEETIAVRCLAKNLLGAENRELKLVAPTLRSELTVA

Binder	EC50, inhibition of PDGF-AA-induced thymidine incorporation in U118 cells [1]	koff [2]	Kd [3]	EC50 [4]	IC50 (read off the curve) [5]	IC50 [6]	IC50 [7]	IC50 [8]	PDGFRα tyrosine phosphorylation in PAE Rα cells [1]
IMC-3G3, human anti-PDGFRα monoclonal antibody (antibody, human IgG1, V domains shown, also called EMC-3G3; anti-PDGFRα antibody) VH: QLQLQESGPGLVKPSETLSLTCTVSGGSINSSSYYWGWLRQSPGKGLEWIGSFFYTGSTYYNPSLRSRLTISVDTSKNQFSLMLSSVTAADTAVYYCARQSTYYYGSGNYYGWFDRWDQGTLVTVSS VL: EIVLTQSPATLSLSPGERATLSCRASQSVSSYLAWYQQKPGQAPRLLIYDASNRATGIPARFSGSGSGTDFTLTISSLEPEDFAVYYCQQRSNWPPAFGQGTKVEIK	3.4 nM	4.7e-05 s⁻¹	0.04 nM	0.06 nM	~0.3 nM	0.43 nM	0.58 nM	0.24 nM	
PDGF-BB (ligand, UniProt P01127 82-190, looked up, 125I label in the blocking assay) SLGSLTIAEPAMIAECKTRTEVFEISRRLIDRTNANFLVWPPCVEVQRCSGCCNNRNVQCRPTQVQLRPVQVRKIEIVRKKPIFKKATVTLEDHLACKCETVAAARPVT									~5 fold (at 3 nmol/L)
